Test system: Escherichia coli TOP10
Assay: shrunken log2 fold change of peptide-encoding DNA abundance (4.5 h post-induction vs induction); higher = less antimicrobial activity (less host growth inhibition)
Settings: time post-induction: 4.5 h; library: site-saturation at positions 5, 18, 19, 20
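Further: peptides expressed intracellularly from a pBAD plasmid library in pooled LB shake-flask culture, induced with 0.3% L-arabinose, DNA abundance read by NGS, three biological replicates, DESeq2 with apeglm shrinkage.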

Sequence	shrunken log2 fold change
RRIRLRPPRLPRPRPRPWMVPRP	-0.263
RRIRSRPPRLPRPRPRPSTEPRP	-0.0608
RRIRFRPPRLPRPRPRPATIPRP	-0.506
RRIRIRPPRLPRPRPRPPDMPRP	-0.16
RRIRRRPPRLPRPRPRPADCPRP	0.0869
RRIRYRPPRLPRPRPRPMSMPRP	-0.304
RRIRARPPRLPRPRPRPGLGPRP	1.16
RRIRNRPPRLPRPRPRPLDTPRP	-0.0954
RRIRMRPPRLPRPRPRPQNLPRP	0.12
RRIRRRPPRLPRPRPRPHDTPRP	-0.0817
RRIRYRPPRLPRPRPRPFPMPRP	-0.834
RRIRCRPPRLPRPRPRPNKRPRP	-0.42
RRIRKRPPRLPRPRPRPQWDPRP	0.00929
RRIRPRPPRLPRPRPRPRDKPRP	0.144
RRIRARPPRLPRPRPRPFMFPRP	0.189
RRIRCRPPRLPRPRPRPLTWPRP	-0.16
RRIRWRPPRLPRPRPRPSCAPRP	0.145
RRIRDRPPRLPRPRPRPIICPRP	-0.0435
RRIRVRPPRLPRPRPRPIRYPRP	0.146
RRIRERPPRLPRPRPRPHFVPRP	-0.0987
RRIRERPPRLPRPRPRPWWTPRP	-0.0694
RRIRYRPPRLPRPRPRPWPRPRP	0.209

Sequence	shrunken log2 fold change
RRIRKRPPRLPRPRPRPRQAPRP	1.79
RRIRSRPPRLPRPRPRPCLCPRP	-1.28
RRIRMRPPRLPRPRPRPPMVPRP	0.188
RRIRSRPPRLPRPRPRPFKYPRP	-0.418
RRIRPRPPRLPRPRPRPFAEPRP	0.0204
RRIRHRPPRLPRPRPRPVKGPRP	-0.079
RRIRHRPPRLPRPRPRPFRWPRP	0.137
RRIRGRPPRLPRPRPRPNVKPRP	0.292
RRIRVRPPRLPRPRPRPPPIPRP	0.59
RRIRRRPPRLPRPRPRPHVMPRP	1.55
RRIRDRPPRLPRPRPRPKLNPRP	0.0523
RRIRDRPPRLPRPRPRPCHMPRP	0.00148
RRIRLRPPRLPRPRPRPYSIPRP	0.0705
RRIRIRPPRLPRPRPRPAMIPRP	0.0156
RRIRHRPPRLPRPRPRPASVPRP	-0.00985
RRIRPRPPRLPRPRPRPRNFPRP	0.192
RRIRERPPRLPRPRPRPTFTPRP	-0.134
RRIRKRPPRLPRPRPRPWWKPRP	-0.103
RRIRKRPPRLPRPRPRPGIEPRP	1.34
RRIRERPPRLPRPRPRPSQLPRP	-0.127
RRIRKRPPRLPRPRPRPGVGPRP	0.818
RRIRFRPPRLPRPRPRPKPNPRP	0.545

Sequence	shrunken log2 fold change
RRIRKRPPRLPRPRPRPDKNPRP	0.159
RRIRGRPPRLPRPRPRPKLRPRP	0.675
RRIRMRPPRLPRPRPRPTKMPRP	0.745
RRIRYRPPRLPRPRPRPHWPPRP	-0.322
RRIRHRPPRLPRPRPRPDSAPRP	-0.216
RRIRPRPPRLPRPRPRPAVIPRP	-0.007
RRIRPRPPRLPRPRPRPCIRPRP	-0.14
RRIRPRPPRLPRPRPRPSHFPRP	-0.399
RRIRARPPRLPRPRPRPKSPPRP	0.425
RRIRRRPPRLPRPRPRPIIAPRP	0.0198
RRIRMRPPRLPRPRPRPTCWPRP	0.816
RRIRKRPPRLPRPRPRPCCDPRP	0.217
RRIRSRPPRLPRPRPRPRHVPRP	-0.0732
RRIRQRPPRLPRPRPRPPNHPRP	-0.157
RRIRVRPPRLPRPRPRPDHAPRP	0.27
RRIRQRPPRLPRPRPRPSAMPRP	0.218
RRIRKRPPRLPRPRPRPPIGPRP	0.407
RRIRFRPPRLPRPRPRPSLFPRP	-0.291
RRIRLRPPRLPRPRPRPRPVPRP	0.637
RRIRFRPPRLPRPRPRPPDNPRP	-0.115
RRIRWRPPRLPRPRPRPEQSPRP	0.678
RRIRYRPPRLPRPRPRPQIDPRP	0.0753

Sequence	shrunken log2 fold change
RRIRRRPPRLPRPRPRPDNTPRP	0.876
RRIRNRPPRLPRPRPRPHMPPRP	-0.0765
RRIRGRPPRLPRPRPRPIYGPRP	-0.141
RRIRSRPPRLPRPRPRPCTQPRP	-0.294
RRIRGRPPRLPRPRPRPMMWPRP	0.412
RRIRSRPPRLPRPRPRPKRSPRP	0.205
RRIRFRPPRLPRPRPRPHYLPRP	-0.217
RRIRVRPPRLPRPRPRPYACPRP	0.0114
RRIRGRPPRLPRPRPRPDYEPRP	0.19
RRIRPRPPRLPRPRPRPHSGPRP	-0.169
RRIRIRPPRLPRPRPRPWMSPRP	-0.266
RRIRDRPPRLPRPRPRPLGMPRP	0.111
RRIRERPPRLPRPRPRPCSYPRP	-0.0141
RRIRMRPPRLPRPRPRPSPCPRP	0.18
RRIRNRPPRLPRPRPRPFNSPRP	-0.0382
RRIRSRPPRLPRPRPRPITDPRP	-0.0789
RRIRYRPPRLPRPRPRPIKWPRP	0.0101
RRIRYRPPRLPRPRPRPTEVPRP	-0.016
RRIRVRPPRLPRPRPRPYCRPRP	-0.213
RRIRMRPPRLPRPRPRPVAYPRP	0.214
RRIRFRPPRLPRPRPRPPMQPRP	0.115
RRIRDRPPRLPRPRPRPYQMPRP	-0.796

Sequence	shrunken log2 fold change
RRIRLRPPRLPRPRPRPACHPRP	0.186
RRIRTRPPRLPRPRPRPCYIPRP	-0.226
RRIRERPPRLPRPRPRPDDTPRP	-0.0925
RRIRFRPPRLPRPRPRPCQDPRP	-0.148
RRIRGRPPRLPRPRPRPLYPPRP	0.162
RRIRRRPPRLPRPRPRPLCSPRP	-0.255
RRIRKRPPRLPRPRPRPVCVPRP	0.573
RRIRPRPPRLPRPRPRPRINPRP	-0.16
RRIRFRPPRLPRPRPRPATVPRP	0.00554
RRIRIRPPRLPRPRPRPFKHPRP	-1.2
RRIRNRPPRLPRPRPRPFCHPRP	-0.476
RRIRDRPPRLPRPRPRPNAFPRP	-0.0726
RRIRRRPPRLPRPRPRPHYEPRP	-0.508
RRIRARPPRLPRPRPRPYNTPRP	-0.606
RRIRGRPPRLPRPRPRPAGWPRP	1.15
RRIRGRPPRLPRPRPRPGFEPRP	0.813
RRIRMRPPRLPRPRPRPVRDPRP	0.882
RRIRFRPPRLPRPRPRPSGIPRP	-0.287
RRIRSRPPRLPRPRPRPETHPRP	0.0531
RRIRTRPPRLPRPRPRPRFMPRP	-0.265
RRIRYRPPRLPRPRPRPFLMPRP	-0.922
